Measured values as given in US20220389085A1 (BIONOXX, published 2022).

Tests used:
[1] = molecular target: T1, protein A56 of the oncolytic virus OTS-412 (vaccinia virus (OTS-412), UniProt P08714 17-315); test: flow cytometry, PC3 cells treated with OTS-412
T1 construct: also called OTS-412-A56; protein A56 variant
T1 chain: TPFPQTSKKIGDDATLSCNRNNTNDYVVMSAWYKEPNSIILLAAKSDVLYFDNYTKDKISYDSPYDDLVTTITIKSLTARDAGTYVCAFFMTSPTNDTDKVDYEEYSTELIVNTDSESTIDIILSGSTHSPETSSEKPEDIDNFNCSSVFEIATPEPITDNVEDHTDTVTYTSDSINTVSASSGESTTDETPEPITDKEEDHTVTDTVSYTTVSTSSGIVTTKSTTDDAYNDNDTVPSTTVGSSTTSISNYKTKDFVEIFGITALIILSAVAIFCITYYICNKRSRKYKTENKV

[2] = molecular target: T1, protein A56 of the oncolytic virus …; test: flow cytometry, A549 cells treated with OTS-412
[3] = molecular target: T2, protein A56 of the oncolytic virus WOTS-418 (vaccinia virus (WOTS-418, Western …, UniProt Q01218 17-314)); test: flow cytometry, PC3 cells treated with WOTS-418
T2 construct: also called WOTS-418-A56; protein A56 variant

[4] = molecular target: T2, protein A56 of the oncolytic virus …; test: flow cytometry, A549 cells treated with WOTS-418
[5] = molecular target: T1, protein A56 of the oncolytic virus …; test: flow cytometry, MCF7 cells treated with OTS-412
[6] = molecular target: T2, protein A56 of the oncolytic virus …; test: flow cytometry, MCF7 cells treated with WOTS-418
[7] = molecular target: T1, protein A56 of the oncolytic virus …; test: flow cytometry, PC3 cells treated with OTS-412 (overlay, FIG. 74)
[8] = molecular target: T2, protein A56 of the oncolytic virus …; test: flow cytometry, PC3 cells treated with WOTS-418 (overlay, FIG. 75)

B1: LakePharma variant3 (antibody)
VH: QVQLQQSGPELVKPGASMKLSCKASGYSFTGYTMNWVKQSHGKNLEWIGLINPYNGGTSYNQKFKGKATLTVDKSSSTAYMELLSLTSEDSAVYYCARSHYRYDYWYFDVWGAGTTVTVSSAKTTPPSVYPLAPGSAAQTNSMVTLGCLVKGYFPEPVTVTWNSGSLSSGVHTFPAVLQSDLYTLSSSVTVPSSTWPSETVTCNVAHPASSTKVDKKIVPRDCGCKPCICTVPEVSSVFIFPPKPKDVLTITLTPKVTCVVVDISKDDPEVQFSWFVDDVEVHTAQTQPREEQFNSTFRSVSELPIMHQDWLNGKEFKCRVNSAAFPAPIEKTISKTKGRPKAPQVYTIPPPKEQMAKDKVSLTCMITDFFPEDITVEWQWNGQPAENYKNTQPIMDTDGSYFVYSKLNVQKSNWEAGNTFTCSVLHEGLHNHHTEKSLSHSPGK
VL: DVVMTQTPLSLPVSLGDQASISCRSSQSLVHSNGNTYLHWYLQKPGQSPKLLIYKVSNRFSGVPDRFSGSGSGTDFTLKISRVEAEDLGVYFCSQSTHVPPFTFGSGTKLEIKRADAAPTVSIFPPSSEQLTSGGASVVCFLNNFYPKDINVKWKIDGSERQNGVLNSWTDQDSKDSTYSMSSTLTLTKDEYERHNSYTCEATHKTSTSPIVKSFNRNEC
notes: also called LP variant3; LPvariant03
- binding signal (flow cytometry, %) [1]: ≥ 90%
- binding signal (flow cytometry, %) [2]: ≥ 93%
- binding signal (flow cytometry, %) [3]: ≥ 90%
- binding signal (flow cytometry, %) [4]: ≥ 93%

B2: LakePharma variant4 (antibody)
VH: EVQLQQSGPELVKPGASMKLSCKASGYSFTGYTMNWVKQSHGKNLEWIGLINPYNGGTSYNQKFKGKATLTVDKSSSTAYMELLSLTSEDSAVYYCARSHYRYDYWYFDVWGAGTTVTVSSAKTTPPSVYPLAPGSAAQTNSMVTLGCLVKGYFPEPVTVTWNSGSLSSGVHTFPAVLQSDLYTLSSSVTVPSSTWPSETVTCNVAHPASSTKVDKKIVPRDCGCKPCICTVPEVSSVFIFPPKPKDVLTITLTPKVTCVVVDISKDDPEVQFSWFVDDVEVHTAQTQPREEQFNSTFRSVSELPIMHQDWLNGKEFKCRVNSAAFPAPIEKTISKTKGRPKAPQVYTIPPPKEQMAKDKVSLTCMITDFFPEDITVEWQWNGQPAENYKNTQPIMDTDGSYFVYSKLNVQKSNWEAGNTFTCSVLHEGLHNHHTEKSLSHSPGK
VL: DVVMTQTPLSLPVSLGDQASISCRSSQSLVHSNGNTYLHWYLQKPGQSPKLLIYKVSNRFSGVPDRFSGSGSGTDFTLKISRVEAEDLGVYFCSQSTHVPPFTFGSGTKLEIKRADAAPTVSIFPPSSEQLTSGGASVVCFLNNFYPKDINVKWKIDGSERQNGVLNSWTDQDSKDSTYSMSSTLTLTKDEYERHNSYTCEATHKTSTSPIVKSFNRNEC
notes: also called LP variant4; LPvariant04
- binding signal (flow cytometry, %) [1]: ≥ 90%
- binding signal (flow cytometry, %) [2]: ≥ 93%
- binding signal (flow cytometry, %) [3]: ≥ 90%
- binding signal (flow cytometry, %) [4]: ≥ 93%

B3: A56-02C06 (Ab18) (antibody, V domains shown)
VH: QVQLVESGGGLVQPGKSLRLSCAASGFTFSTYGMTWVRQAPGKGLEWVSGISGGGSSTNYADSVKGRFIISRDNSNNTLYLQMNSLRAEDTAVYYCARWGVMLSFDYWGQGTPVTVSS
VL: DIQMTQSPSTLPASVGDRVTITCRASYSVSPWLAWYQQKPGKAPKLLIYKASTLESGVPSRFSGSGSGTEFTLTISSLQPDDFATYYCQQFNSYMMYTFGQGTKLEIK
- binding signal (flow cytometry, %) [5]: ≥ 80%
- binding signal (flow cytometry, %) [6]: ≥ 80%
- binding signal (flow cytometry, %) [7]: ≥ 60%
- binding signal (flow cytometry, %) [8]: ≥ 60%

B4: A56-02C07 (Ab19) (antibody, V domains shown)
VH: QVQLVESGAEVRRPGSSVKVSCKTSGVTFSGYVLSWVRQAPGHGLEWMGRIIPLIDVENYAREFQGRMKITADKSTNTVYMELNNLRSEDTAVYYCAKSVVRGLDYYYYGFDVWGQGTTVTVSS
VL: SYELTQPPSLSVAPGKTARITCGGNNIGSKSVHWYQQKPGQAPRLVTYYDGNRPSGIPERFSGSNSGNTATLIISRVEAGDEADYYCQVWDSSSDQGVFGTGTKVTVL
- binding signal (flow cytometry, %) [2]: ≥ 90%
- binding signal (flow cytometry, %) [5]: ≥ 80%
- binding signal (flow cytometry, %) [4]: ≥ 90%
- binding signal (flow cytometry, %) [6]: ≥ 80%
- binding signal (flow cytometry, %) [7]: ≥ 60%
- binding signal (flow cytometry, %) [8]: ≥ 60%

B5: A56-01A02 (Ab01) (antibody, V domains shown)
VH: QMQLVQSGAEVKKPGSSVKVSCKASGGTFSSYAISWVRQAPGQGLEWMGGIIPIFGTANYAQKFQGRVTMTRDTSTSTVYMELSSLKSEDTAVYYCARFVFGSGTYLDSWGQGTLVTVSS
VL: not shown
- binding signal (flow cytometry, %) [2]: ≥ 90%
- binding signal (flow cytometry, %) [5]: ≥ 80%
- binding signal (flow cytometry, %) [4]: ≥ 90%
- binding signal (flow cytometry, %) [6]: ≥ 80%
- binding signal (flow cytometry, %) [7]: ≥ 60%
- binding signal (flow cytometry, %) [8]: ≥ 60%

B6: A56-02A02 (Ab13) (antibody, V domains shown)
VH: QMQLVESGAEVKKTGSSVKVSCKASGDTLTYRFLHWVRQAPGQAPEWMGWITPFNDNTNYAQKFQDRVTITRDRSMSTAYMELSSLRSEDTAVYYCATGGGNNYYGMEVWGQGTPITVSS
VL: SYELTQPLSLSVSPGQTASITCSGDKLGDKFTSWYQQQPGQSPVLVIYQDAKRPSGIPERFSGSNSGSTATLTISGTQSMDEADYYCQAWDSSSVVFGGGTKLTVL
- binding signal (flow cytometry, %) [2]: ≥ 90%
- binding signal (flow cytometry, %) [5]: ≥ 80%
- binding signal (flow cytometry, %) [4]: ≥ 90%
- binding signal (flow cytometry, %) [6]: ≥ 80%
- binding signal (flow cytometry, %) [7]: ≥ 60%
- binding signal (flow cytometry, %) [8]: ≥ 60%

B7: A56-02B01 (Ab14) (antibody, V domains shown)
VH: QVQLVQSGGGVVQPGRSLRLSCAASGFTFSNYGMHWVRQAPGKGLEWMAFIWFDGSNKFYADSVKGRFTVSRDNSKNTLFLQMNSLRAEDTAVYYCAKAAHLWGAFDIWGQGTMVTVSS
VL: DIQMTQSPDTLSLSPGERATLSCRASQSVSSYLAWYQQKPGQAPRLLIYGASNRATGIPARFSGSGSGTDFALTIGRLEPEDFAVYYCQQYATSPLSFGGGTKVEIK
- binding signal (flow cytometry, %) [2]: ≥ 90%
- binding signal (flow cytometry, %) [5]: ≥ 80%
- binding signal (flow cytometry, %) [4]: ≥ 90%
- binding signal (flow cytometry, %) [6]: ≥ 80%
- binding signal (flow cytometry, %) [7]: ≥ 60%
- binding signal (flow cytometry, %) [8]: ≥ 60%

B8: A56-01F12 (Ab08) (antibody, V domains shown)
VH: QVQLVESGGEVKKPGSSVKVSCKASGGSFSTYAISWVRQAPGQGLEWMGRIIPISDIRNYAQKFQGRVTLTADRATSTAYMELSSLRSEDTAVYYCAKGGRLLSTHFDYWGQGTLVTVSS
VL: QLVLTQPPSVSAAPGQKVTISCSGSSSNIGNNYVSWYQQLPGTAPKLLIYDDDKRPSGIPDRFSGSKSGTSATLGITGLQTGDEADYYCGTWHSGLSAGVVFGGGTKLTVL
- binding signal (flow cytometry, %) [2]: ≥ 90%
- binding signal (flow cytometry, %) [5]: ≥ 80%
- binding signal (flow cytometry, %) [4]: ≥ 90%
- binding signal (flow cytometry, %) [6]: ≥ 80%
- binding signal (flow cytometry, %) [7]: ≥ 60%
- binding signal (flow cytometry, %) [8]: ≥ 60%

B9: A56-01A04 (Ab03) (antibody, V domains shown)
VH: QVQLVESGAEVKKPGSSVKVSCKASGGTFSYRYLHWVRQASGQALEWMGWITPFNGYTNYAQKFQDRVTITRDRSMSTAYMELSSLRSEDTAVYYCVTGLGKTNLDSWGQGTLVTVSS
VL: DIVMTQTPLSSPVTLGQPASISCRSSQSLVHSNGNTYLSWLQQRPGQPPRLLIYQISKRFSGVPDRFSGSGAGTDFTLKISRVEAEDVGVYYCMQLTQFPLTFGGGTKVEIK
- binding signal (flow cytometry, %) [2]: ≥ 90%
- binding signal (flow cytometry, %) [5]: ≥ 80%
- binding signal (flow cytometry, %) [4]: ≥ 90%
- binding signal (flow cytometry, %) [6]: ≥ 80%
- binding signal (flow cytometry, %) [7]: ≥ 60%
- binding signal (flow cytometry, %) [8]: ≥ 60%

B10: A56-35G07 (Ab51) (antibody, V domains shown)
VH: QMQLVQSGAEVRKPGSSVKVSCKASGDTFSSYAVSWVRQAPGLGLEWMGRTIPRLGATSYAQNFQGRVSITADKSTNTVYMELSGLRSEDTAVYYCARYIPLVRGVRQPRDDFEIWGPGTMITVSS
VL: DIQMTQSPGTLSLSPGERATLSCRASQSVSSSYLAWYQQKPGQAPRLLIYGASSRATGIPDRFSGSGSGTDFTLTISSLEPEDFAVYYCQHRKSWPPGATFGQGTRLEIK
- binding signal (flow cytometry, %) [2]: ≥ 90%
- binding signal (flow cytometry, %) [5]: ≥ 80%
- binding signal (flow cytometry, %) [4]: ≥ 90%
- binding signal (flow cytometry, %) [6]: ≥ 80%
- binding signal (flow cytometry, %) [7]: ≥ 60%
- binding signal (flow cytometry, %) [8]: ≥ 60%

B11: A56-44G01 (Ab55) (antibody, V domains shown)
VH: QVQLVESGGGVVQPGRSLRLSCAASGFTFSSYAMHWVRQAPGKGLEWVAVISYDGSNKYYADSVKGRFTISRDNSKNTLYLQMNSLRAEDTAVYYCAKDLWGRVGALVGALDLWGQGTMITVSS
VL: SYELTQGPSLSVSPGQTANIICSGDNLRTKYVSWYQQKPGQSPILVIYQDTRRPSGIPARFSGSNSGNTATLTISGTQAMDEADYYCQAWDSGNYVFGTGTKVTVL
- binding signal (flow cytometry, %) [2]: ≥ 90%
- binding signal (flow cytometry, %) [5]: ≥ 80%
- binding signal (flow cytometry, %) [4]: ≥ 90%
- binding signal (flow cytometry, %) [6]: ≥ 80%
- binding signal (flow cytometry, %) [7]: ≥ 60%
- binding signal (flow cytometry, %) [8]: ≥ 60%
